Results on one substance are retold here after PMC7274780.

For the assay, the target named is Salmonella typhimurium oxaloacetate decarboxylase sodium pump (StOAD) β subunit (Salmonella typhimurium) (UniProt Q03031). Description: cryo-EM structure; purified StOAD βγ sub-complex in 20 mM Tris pH 7.5, 100 mM sodium chloride, 2 mM DTT, 0.02% DDM; C3 symmetry imposed; 3.88 Å.

“Salmonella typhimurium oxaloacetate decarboxylase sodium pump (StOAD) β subunit (from UniProt Q03031 1-433) (natural protein)” displayed a stoichiometry N of 3.

For orientation: stoichiometry N means the number of molecules, sites or subunits per partner or assembly.
